T1: FGFR4 (acro) (UniProt P22455 22-369)
T1 sequence (looked up): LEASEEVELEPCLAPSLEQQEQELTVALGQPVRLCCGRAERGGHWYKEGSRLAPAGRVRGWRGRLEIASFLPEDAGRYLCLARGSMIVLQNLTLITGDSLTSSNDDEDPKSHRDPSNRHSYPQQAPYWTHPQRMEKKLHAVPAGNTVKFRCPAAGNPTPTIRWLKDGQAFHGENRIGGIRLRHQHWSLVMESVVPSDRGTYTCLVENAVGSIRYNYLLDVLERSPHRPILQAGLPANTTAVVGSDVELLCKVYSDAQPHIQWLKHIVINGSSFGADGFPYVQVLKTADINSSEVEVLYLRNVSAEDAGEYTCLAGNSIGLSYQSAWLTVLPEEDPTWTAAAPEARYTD


Legend:
[1] = biological target: T2, recombinant cynomolgus monkey FGFR2b (cynomolgus monkey); experiment: ELISA, antibody 1ug/mL
T2 construct: extracellular domain; bought; also called cynomolgus macaque FGFR2b

FGFR4 (acro) [2] = biological target: T1, FGFR4 (acro); experiment: ELISA, antibody 10 µg/mL
FGFR2c (acro) [3] = biological target: T3, FGFR2c (acro) (UniProt P21802 22-377); experiment: ELISA, antibody 10 µg/mL
[4] = biological target: T4, human FGFR2b (Kaixia Biotechnology, catalog number FGR-HM1BB) (human, UniProt P21802-3 22-378); experiment: BLI, antibody on AHC2 sensor
T4 construct: extracellular domain; bought; also called hFGFR2b; human FGFR2b protein

FGFR4 (acro) [5] = biological target: T1, FGFR4 (acro); experiment: ELISA
FGFR2c (acro) [6] = biological target: T3, FGFR2c (acro); experiment: ELISA
[7] = biological target: T4, human FGFR2b (Kaixia Biotechnology, …); experiment: ELISA, FGFR2b coated at 1 µg/ml
FGFR2b on KATO III cells = biological target: T5, FGFR2b on KATO III cells (human, UniProt P21802-3 22-822); experiment: flow cytometry, KATO III cells
T5 construct: whole, on cells; also called KATO III cells that overexpress FGFR2b
T5 sequence (P21802 other isoform, or with tags, fused parts or gaps): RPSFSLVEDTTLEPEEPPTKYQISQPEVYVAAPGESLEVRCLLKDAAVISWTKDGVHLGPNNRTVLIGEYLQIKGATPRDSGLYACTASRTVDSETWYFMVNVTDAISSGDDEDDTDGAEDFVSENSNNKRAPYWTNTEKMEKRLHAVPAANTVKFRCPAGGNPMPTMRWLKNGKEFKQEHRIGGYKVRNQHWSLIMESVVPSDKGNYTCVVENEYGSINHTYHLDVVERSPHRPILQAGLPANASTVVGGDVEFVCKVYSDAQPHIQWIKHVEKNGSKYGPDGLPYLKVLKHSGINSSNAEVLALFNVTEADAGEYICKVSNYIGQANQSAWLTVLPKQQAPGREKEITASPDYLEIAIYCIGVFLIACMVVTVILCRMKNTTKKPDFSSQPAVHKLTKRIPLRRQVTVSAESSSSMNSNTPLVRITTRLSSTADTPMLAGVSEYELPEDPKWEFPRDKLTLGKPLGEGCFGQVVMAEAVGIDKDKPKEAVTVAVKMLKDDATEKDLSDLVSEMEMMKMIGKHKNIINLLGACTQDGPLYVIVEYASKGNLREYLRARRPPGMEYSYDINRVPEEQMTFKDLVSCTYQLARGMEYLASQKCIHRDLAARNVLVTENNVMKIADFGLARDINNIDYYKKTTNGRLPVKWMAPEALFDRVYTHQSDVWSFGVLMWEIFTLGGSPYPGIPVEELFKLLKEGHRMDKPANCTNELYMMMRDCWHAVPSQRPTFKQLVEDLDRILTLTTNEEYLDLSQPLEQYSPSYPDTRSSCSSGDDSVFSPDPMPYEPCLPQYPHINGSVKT

T3 sequence (P21802 22-377): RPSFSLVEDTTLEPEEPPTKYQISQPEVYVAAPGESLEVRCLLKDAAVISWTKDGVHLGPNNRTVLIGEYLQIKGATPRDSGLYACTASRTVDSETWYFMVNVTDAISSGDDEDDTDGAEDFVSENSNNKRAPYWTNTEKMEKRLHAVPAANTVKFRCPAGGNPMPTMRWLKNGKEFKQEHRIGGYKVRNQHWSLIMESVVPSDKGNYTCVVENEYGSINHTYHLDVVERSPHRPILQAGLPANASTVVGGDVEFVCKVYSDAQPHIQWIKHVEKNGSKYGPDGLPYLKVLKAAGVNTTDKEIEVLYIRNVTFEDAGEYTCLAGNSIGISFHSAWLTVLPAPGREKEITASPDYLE
T4 sequence (P21802 other isoform, or with tags, fused parts or gaps): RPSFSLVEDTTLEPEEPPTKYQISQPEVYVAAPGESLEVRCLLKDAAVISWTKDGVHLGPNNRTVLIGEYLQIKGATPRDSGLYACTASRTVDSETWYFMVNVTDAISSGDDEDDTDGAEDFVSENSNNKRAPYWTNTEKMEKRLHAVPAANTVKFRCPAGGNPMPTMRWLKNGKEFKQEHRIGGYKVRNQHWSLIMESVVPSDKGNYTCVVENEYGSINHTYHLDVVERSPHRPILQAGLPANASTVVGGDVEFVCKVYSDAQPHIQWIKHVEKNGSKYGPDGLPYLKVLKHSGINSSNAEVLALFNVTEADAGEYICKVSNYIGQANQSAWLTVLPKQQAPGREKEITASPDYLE

Row | OD (450 nm) value [1] | OD (450 nm) value (FGFR4 (acro) [2]) | OD (450 nm) value (FGFR2c (acro) [3]) | Kd [4] [nM] | koff [4] [s⁻¹] | kon [4] [M⁻¹ s⁻¹] | binding result (FGFR4 (acro) [5]) | binding result (FGFR2c (acro) [6]) | EC50 [7] [µg/mL] | EC50 (FGFR2b on KATO III cells) [µg/mL] | Binder
1 | 3.27 | 0.106 | 0.098 | 2.82 | 0.000662 | 235000 | no binding (tested: 10 µg/mL) | no binding (tested: 10 µg/mL) | 0.0128 | 0.292 | 3A12 scFv-Fc (Fc fusion, scFv-Fc dimer) EVQLQQSGAELVKPGASVKMSCKASGYTFSFYNVHWVRQTPGQGLEWIGLIYPDNGDTSYNQKFKAKATLTADKSSSAAYMQLSSLTSEDSAVYYCARGGFDYWGQGTSLTVSSGGGGSGGGGSGGGGSDIVMTQSHKFMSTSVGDRVNITCKASQDVSTAVAWYQQKPGQSPKLLIYSASYRYSGVPDRFTGSGSGTDFTFTISSVQAEDLAVYYCQQHYSTPYTFGGGTKLEMKESKYGPPCPPCPAPEAAGGPSVFLFPPKPKDTLMISRTPEVTCVVVDVSQEDPEVQFNWYVDGVEVHNAKTKPREEQFNSTYRVVSVLTVLHQDWLNGKEYKCKVSNKGLPSSIEKTISKAKGQPREPQVYTLPPSQEEMTKNQVSLTCLVKGFYPSDIAVEWESNGQPENNYKTTPPVLDSDGSFFLYSKLTVDKSRWQEGNVFSCSVMHEALHNHYTQKSLSLSLG
2 | 3.35 | 0.157 | 0.093 | 8.41 | 0.00166 | 198000 | no binding (tested: 10 µg/mL) | no binding (tested: 10 µg/mL) | 0.0128 | 0.226 | 3H6 scFv-Fc (Fc fusion, scFv-Fc dimer) QVQLQQSGAELVKPGASVKMSCKASGYTFSFYNIHWVRQTPGQGLEWIGLIYPDNGDTSYNQKFKAKATLTADKSSSTAYMQLSSLTSEDSAVYYCARGGFDYWGQGTTLTVSSGGGGSGGGGSGGGGSDIQMTQSPASLSASVGETVTITCRASENIYSYLAWYQQKQGKSPQLLVYNAKTLAEGVPSRFSGSGSGTQFSLKINSLQPEDFGSYYCQHHYGTPYTFGGGTKLEMKESKYGPPCPPCPAPEAAGGPSVFLFPPKPKDTLMISRTPEVTCVVVDVSQEDPEVQFNWYVDGVEVHNAKTKPREEQFNSTYRVVSVLTVLHQDWLNGKEYKCKVSNKGLPSSIEKTISKAKGQPREPQVYTLPPSQEEMTKNQVSLTCLVKGFYPSDIAVEWESNGQPENNYKTTPPVLDSDGSFFLYSKLTVDKSRWQEGNVFSCSVMHEALHNHYTQKSLSLSLG
3 | 3 | 0.103 | 0.098 | 6.67 | 0.00179 | 268000 | no binding (tested: 10 µg/mL) | no binding (tested: 10 µg/mL) | 0.0276 | 0.195 | 2B1 scFv-Fc (Fc fusion, scFv-Fc dimer) EVQLQQSGAELVKPGASVKMSCKASGYTFASYNLHWVKQTPGQGLEWIGLIYPENGDTSYNQKFKGKATLTADKSSSTAYIQLSSLTSEDSAVYFCARGGFDYWGQGTSLTVSSGGGGSGGGGSGGGGSDIQMIQSPASLSVSVGETVTITCRASENIYSNLAWYQQKQGKSPQLLVYNAKTLADGVPSRFSGSGSGTQYSLKINSLQPEDFGSYYCQHFWSTPYTFGGGTKLEIKESKYGPPCPPCPAPEAAGGPSVFLFPPKPKDTLMISRTPEVTCVVVDVSQEDPEVQFNWYVDGVEVHNAKTKPREEQFNSTYRVVSVLTVLHQDWLNGKEYKCKVSNKGLPSSIEKTISKAKGQPREPQVYTLPPSQEEMTKNQVSLTCLVKGFYPSDIAVEWESNGQPENNYKTTPPVLDSDGSFFLYSKLTVDKSRWQEGNVFSCSVMHEALHNHYTQKSLSLSLG

From EP4714976A1 (Sunshine Lake Pharma Co., Ltd., dated 2026)
